The source of these data is patent US20240115611A1 (KITE PHARMA, published 2024).

Assay [1] has as its target T1, CD20 (human CD20) (human, UniProt P11836 1-297).
T1 construct: whole, on cells; The cell line for each value is named under assay
T1 sequence (looked up): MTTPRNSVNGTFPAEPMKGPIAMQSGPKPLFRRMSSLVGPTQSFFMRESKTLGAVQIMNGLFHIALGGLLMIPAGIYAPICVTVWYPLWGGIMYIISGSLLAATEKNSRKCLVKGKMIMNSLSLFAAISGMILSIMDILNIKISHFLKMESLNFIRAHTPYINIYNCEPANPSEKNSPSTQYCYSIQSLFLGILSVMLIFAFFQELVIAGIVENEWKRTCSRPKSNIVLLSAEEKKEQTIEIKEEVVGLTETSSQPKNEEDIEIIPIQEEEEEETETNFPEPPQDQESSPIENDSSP
The assay is described as follows: flow cytometry, purified IgG at 10 nM on Raji cells (CD20+), FITC-LC detection, ratio over negative control. As for the experimental part:
(§1) To determine cell binding by exemplary heavy chain variable domains and light chain variable domains of the present disclosure, purified IgGs were characterized for cell binding at a concentration of 10 nM by flow cytometry. Antibodies were incubated with CHO-S cells overexpressing CD20, Raji, and Namalwa CD20+ cell lines; and with EoL-1 and CHO-S CD20-cell lines. FITC-LC was used to detect IgGs. The ratio of binding over negative controls was calculated for each antibody.
For orientation: In flow cytometry, cells or beads pass a laser one at a time.

The target of assay [2] is T1, CD20 (human CD20). The assay is described as follows: flow cytometry, purified IgG at 10 nM on CHO-S cells overexpressing CD20, FITC-LC detection, ratio over negative control. The protocol:
as §1

The target of assay [3] is T1, CD20 (human CD20). The assay is described as follows: flow cytometry, purified IgG at 10 nM on Namalwa cells (CD20+), FITC-LC detection, ratio over negative control. The protocol: as §1

B1: Ab4 (Exemplary Antibody Sequences 4), anti-CD20 antibody (antibody, V domains shown)
VH: QVQLVQSGAEVKKPGASVKVSCKASGYTFKEYGISWVRQAPGQGLEWMGWISAYSGHTYYAQKLQGRVTMTTDTSTSTAYMELRSLRSDDTAVYYCARGPHYDDWSGFIIWFDPWGQGTLVTVSS
VL: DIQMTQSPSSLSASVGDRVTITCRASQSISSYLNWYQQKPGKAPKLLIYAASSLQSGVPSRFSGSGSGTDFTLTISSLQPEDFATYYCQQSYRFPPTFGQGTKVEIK
For the molecule B1, the “Raji Cell Binding FON (Fold Over Negative)” value with CD20 (human CD20) [1] is 479 fold. The “CHO-CD20 Cell Binding FOB (Fold Over Background)” value with CD20 (human CD20) [2] stood at 3620 fold. Moreover, the “Namalwa Cell Binding FON (Fold Over Negative)” value with CD20 (human CD20) [3] was determined as 19 fold.

B2: Ab1 (Exemplary Antibody Sequences 1), anti-CD20 antibody (antibody, V domains shown)
VH: QVQLQQWGAGLLKPSETLSLTCAVYGGSFSGYYWSWIRQPPGKGLEWIGEIDHSGSTNYNPSLKSRVTISVDTSKNQFSLKLSSVTAADTAVYYCARGGGSWYSNWFDPWGQGTMVTVSS
VL: DIQMTQSPSTLSASVGDRVTITCRASQSISSWLAWYQQKPGKAPKLLIYDASSLESGVPSRFSGSGSGTEFTLTISSLQPDDFATYYCQQDRSLPPTFGGGTKVEIK
With B2, the “Raji Cell Binding FON (Fold Over Negative)” value with CD20 (human CD20) [1] amounted to 266 fold. For the same molecule, the “CHO-CD20 Cell Binding FOB (Fold Over Background)” value with CD20 (human CD20) [2] amounted to 813 fold. Also, the “Namalwa Cell Binding FON (Fold Over Negative)” value with CD20 (human CD20) [3] is 12 fold.

B3: Ab8 (Exemplary Antibody Sequences 8), anti-CD20 antibody (antibody, V domains shown)
VH: QVQLQQWGAGLLKPSETLSLTCAVYGGSFSRYVWSWIRQPPGKGLEWIGEIDSSGKTNYNPSLKSRVTISVDTSKNQFSLKLSSVTAADTAVYYCARVRYDSSDSYYYSYDYGMDVWGQGTTVTVSS
VL: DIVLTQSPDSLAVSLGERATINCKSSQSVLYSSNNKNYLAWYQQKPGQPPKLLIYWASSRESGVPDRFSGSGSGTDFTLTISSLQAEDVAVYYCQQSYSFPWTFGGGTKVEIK
Turning to B3, the “Raji Cell Binding FON (Fold Over Negative)” value with CD20 (human CD20) [1] worked out at 562 fold. Further, the “CHO-CD20 Cell Binding FOB (Fold Over Background)” value with CD20 (human CD20) [2] was 3830 fold. In the assay with CD20 (human CD20) [3], the “Namalwa Cell Binding FON (Fold Over Negative)” value came to 10 fold.

B4: Ab7 (Exemplary Antibody Sequences 7), anti-CD20 antibody (antibody, V domains shown)
VH: QVQLQQWGAGLLKPSETLSLTCAVYGGSFEKYYWSWIRQPPGKGLEWIGEIYHSGLTNYNPSLKSRVTISVDTSKNQFSLKLSSVTAADTAVYYCARVRYDSSDSYYYSYDYGMDVWGQGTTVTVSS
VL: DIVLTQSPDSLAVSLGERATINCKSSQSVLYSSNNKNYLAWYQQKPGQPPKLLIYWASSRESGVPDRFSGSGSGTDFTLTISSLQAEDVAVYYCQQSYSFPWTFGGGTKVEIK
As for B4, the “Raji Cell Binding FON (Fold Over Negative)” value with CD20 (human CD20) [1] was found to be 549 fold. Further, in the assay with CD20 (human CD20) [2], the “CHO-CD20 Cell Binding FOB (Fold Over Background)” value stood at 4080 fold. For the same molecule, the “Namalwa Cell Binding FON (Fold Over Negative)” value with CD20 (human CD20) [3] is 11 fold.

B5: Ab9 (Exemplary Antibody Sequences 9), anti-CD20 antibody (antibody, V domains shown)
VH: QVQLQQWGAGLLKPSETLSLTCAVYGGSFSGYAWSWIRQPPGKGLEWIGEIDHRGFTNYNPSLKSRVTISVDTSKNQFSLKLSSVTAADTAVYYCARVRYDSSDSYYYSYDYGMDVWGQGTTVTVSS
VL: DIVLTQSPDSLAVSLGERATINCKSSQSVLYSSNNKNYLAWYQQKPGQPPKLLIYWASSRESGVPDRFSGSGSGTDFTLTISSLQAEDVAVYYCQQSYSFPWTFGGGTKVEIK
As for B5, the “Raji Cell Binding FON (Fold Over Negative)” value with CD20 (human CD20) [1] stood at 562 fold. The “CHO-CD20 Cell Binding FOB (Fold Over Background)” value with CD20 (human CD20) [2] is 3620 fold. The “Namalwa Cell Binding FON (Fold Over Negative)” value with CD20 (human CD20) [3] came out at 11 fold.

B6: Ab3 (Exemplary Antibody Sequences 3), anti-CD20 antibody (antibody, V domains shown)
VH: QLQLQESGPGLVKPSETLSLTCTVSGGSISSSSYYWGWIRQPPGKGLEWIGSIYYSGSTYYNPSLKSRVTISVDTSKNQFSLKLSSVTAADTAVYYCARETDYSSGMGYGMDVWGQGTTVTVSS
VL: DIQMTQSPSSLSASVGDRVTITCRASQSINSYLNWYQQKPGKAPKLLIYAASSLQSGVPSRFSGSGSGTDFTLTISSLQPEDFATYYCQQSLADPFTFGGGTKVEIK
For the molecule B6, the “Raji Cell Binding FON (Fold Over Negative)” value with CD20 (human CD20) [1] is 316 fold. Besides, the “CHO-CD20 Cell Binding FOB (Fold Over Background)” value in the assay with CD20 (human CD20) [2] turned out to be 2000 fold. For the same molecule, the “Namalwa Cell Binding FON (Fold Over Negative)” value in the assay with CD20 (human CD20) [3] worked out at 16 fold.

B7: Ab6 (Exemplary Antibody Sequences 6), anti-CD20 antibody (antibody, V domains shown)
VH: QITLKESGPTLVKPTQTLTLTCTFSGFSLDTEGVGVGWIRQPPGKALEWLALIYFNDQKRYSPSLKSRLTITKDTSKNQVVLTMTNMDPVDTAVYYCARDTGYSRWYYGMDVWGQGTTVTVSS
VL: DIQMTQSPSSVSASVGDRVTITCRASQGISSWLAWYQQKPGKAPKLLIYAASSLQSGVPSRFSGSGSGTDFTLTISSLQPEDFATYYCQQAYAYPITFGGGTKVEIK
On to B7, for which the “Raji Cell Binding FON (Fold Over Negative)” value in the assay with CD20 (human CD20) [1] was 13 fold. Also, the “CHO-CD20 Cell Binding FOB (Fold Over Background)” value with CD20 (human CD20) [2] worked out at 2520 fold. Besides, in the assay with CD20 (human CD20) [3], the “Namalwa Cell Binding FON (Fold Over Negative)” value worked out at 2 fold.

B8: Ab5 (Exemplary Antibody Sequences 5), anti-CD20 antibody (antibody, V domains shown)
VH: QVQLQESGPGLVKPSETLSLTCTVSGGSISSPDHYWGWIRQPPGKGLEWIGSIYASGSTFYNPSLKSRVTISVDTSKNQFSLKLSSVTAADTAVYYCARETDYSSGMGYGMDVWGQGTTVTVSS
VL: DIQMTQSPSSLSASVGDRVTITCRASQSINSYLNWYQQKPGKAPKLLIYAASSLQSGVPSRFSGSGSGTDFTLTISSLQPEDFATYYCQQSLADPFTFGGGTKVEIK
For B8, in the assay with CD20 (human CD20) [1], the “Raji Cell Binding FON (Fold Over Negative)” value was 185 fold. In addition, the “CHO-CD20 Cell Binding FOB (Fold Over Background)” value in the assay with CD20 (human CD20) [2] is 2480 fold. Further, the “Namalwa Cell Binding FON (Fold Over Negative)” value with CD20 (human CD20) [3] was determined as 17 fold.

B9: Ab10 (Exemplary Antibody Sequences 10), anti-CD20 antibody (antibody, V domains shown)
VH: QVQLQQWGAGLLKPSETLSLTCAVYGGSFQKYYWSWIRQPPGKGLEWIGEIDTSGFTNYNPSLKSRVTISVDTSKNQFSLKLSSVTAADTAVYYCARVGRYSYGYYITAFDIWGQGTTVTVSS
VL: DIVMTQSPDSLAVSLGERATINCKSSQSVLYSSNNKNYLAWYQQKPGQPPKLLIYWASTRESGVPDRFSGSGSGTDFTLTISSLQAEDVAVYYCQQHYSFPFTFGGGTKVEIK
On to B9, for which the “Raji Cell Binding FON (Fold Over Negative)” value with CD20 (human CD20) [1] turned out to be 186 fold. Moreover, in the assay with CD20 (human CD20) [2], the “CHO-CD20 Cell Binding FOB (Fold Over Background)” value was determined as 3160 fold. Further, in the assay with CD20 (human CD20) [3], the “Namalwa Cell Binding FON (Fold Over Negative)” value is 4 fold.

B10: Ab2 (Exemplary Antibody Sequences 2), anti-CD20 antibody (antibody, V domains shown)
VH: QVQLQQWGAGLLKPSETLSLTCAVYGGSFSGIHWNWIRQPPGKGLEWIGDIDTSGSTNYNPSLKSRVTISVDTSKNQFSLKLSSVTAADTAVYYCARLGQESATYLGMDVWGQGTTVTVSS
VL: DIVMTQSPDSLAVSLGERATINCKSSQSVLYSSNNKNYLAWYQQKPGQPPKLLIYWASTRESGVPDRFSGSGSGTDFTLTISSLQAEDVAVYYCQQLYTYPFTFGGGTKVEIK
B10: the “Raji Cell Binding FON (Fold Over Negative)” value in the assay with CD20 (human CD20) [1] amounted to 101 fold. The “CHO-CD20 Cell Binding FOB (Fold Over Background)” value with CD20 (human CD20) [2] amounted to 2790 fold. In addition, the “Namalwa Cell Binding FON (Fold Over Negative)” value with CD20 (human CD20) [3] is 3 fold.
